From patent publication US20050026256 come the findings set out here.

This series concerns the target T1, synthetic peptide substrate SEVNLDAEFR containing the APP Swedish mutation.
T1 chain: SEVNLDAEFR

B1: Hu-Asp2 (human aspartyl protease 2), full-length, expressed from pcDNA3.1(+)Hygro/Hu-Asp2 (protein)
chain: TQHGIRLPLRSGLGGAPLGLRLPRETDEEPEEPGRRGSFVEMVDNLRGKSGQGYYVEMTVGSPPQTLNILVDTGSSNFAVGAAPHPFLHRYYQRQLSSTYRDLRKGVYVPYTQGKWEGELGTDLVSIPHGPNVTVRANIAAITESDKFFINGSNWEGILGLAYAEIARPDDSLEPFFDSLVKQTHVPNLFSLQLCGAGFPLNQSEVLASVGGSMIIGGIDHSLYTGSLWYTPIRREWYYEVIIVRVEINGQDLKMDCKEYNYDKSIVDSGTTNLRLPKKVFEAAVKSIKAASSTEKFPDGFWLGEQLVCWQAGTTPWNIFPVISLYLMGEVTNQSFRITILPQQYLRPVEDVATSQDDCYKFAISQSSTGTVMGAVIMEGFYVVFDRARKRIGFAVSACHVHDEFRTAAVEGPFVTLDMEDCGYNIPQTDESTLMTIAYVMAAICALFMLPLCLMVCQWRCLRCLRQQHDDFADDISLLK
Take B1: the “hydrolysis of the synthetic peptide substrate, RP-HPLC with UV detection; products identified by Edman sequencing and MALDI-TOF” value is “the two product peaks which eluted before the intact peptide substrate, were confirmed to have the sequence DAEFR and SEVNL”; the “β-secretase activity of chromatography fractions (peptide substrate assay)” value is “Fractions containing both Hu-Asp2 immunoreactivity and β-secretase activity were combined”.
